Patent US10556007B2, “Antibody which binds Lrg1 and methods of use” (UCL Business PLC, priority 2015, dated 2020)
Entries after “also recorded” stand apart in the source; their conditions may differ.

Assays:
[1] = test system: laser-induced choroidal neovascularisation; test: Rat laser-induced choroidal neovascularisation (CNV); type: in vivo; conditions: Long Evans rats, intravitreal at time of lasering, analysis 7 days later
Description: Several antibodies were tested for their ability to block CNV in the rat. In these experiments mAbs were injected intravitreally at the time of lasering, with eyes being retrieved for analysis 7 days later (FIG. 5). Long Evans rats, aged 6-8 weeks, each received 5 retinal laser burns at the same time as intravitreal delivery of […] mAb or control IgG into both eyes. Four rats were used for each mAb, so a total of 40 lesions were analysed by staining for collagen IV and the neovascular areas quantified. […] Avastin was also tested in the rat laser model (data not shown) and observed to have no effect, consistent with Avastin having low affinity for rat VEGF.

[2] = test system: Lrg1 (rhLrg1 and liver extracts from mouse, rat, rabbit, monkey, dog and cat); test: Species cross-reactivity ELISA on liver extracts; type: binding; conditions: mAb at 100 nM
Description: Species cross-reactivity was carried out by ELISA in a protocol in which multiwall plates were coated with rhLrg1, and liver extracts from mouse, rat, rabbit, monkey, dog and cat.

[3] = test system: B16-F0 tumours; test: B16-F0 tumour, 15C4 with cisplatin; type: in vivo, mouse; conditions: vs IgG and cisplatin
Description: The adherent cell line B16-F0 was harvested and a single-cell suspension of 1×10^6 cells in 100 μl PBS was injected subcutaneously into the lower back of C57B1/6 male mice. Treatment with 15C4 or IgG was started after three days at 50 mg/kg by intraperitoneal injections, and repeated every 3 days. Suboptimal doses of Cisplatin (2.5 mg/kg) were administered to mice bearing tumours with an average size of 0.5 cm^3 every other day by intraperitoneal injections. Tumours were measured with callipers every other day and volume was calculated using the formula: V=(4/3)×π×(L/2)×(W/2)×(H/2).
Cisplatin and IgG or 15C4 treated tumours were immersion fixed in 4% PFA overnight at 4° C. and then immersed in 30% sucrose overnight at 4° C. Tumour tissue was then OCT embedded and frozen for sectioning (40 μm). TUNEL assay was performed using an ApopTag in situ apoptosis detection kit according to manufacturers protocol (Merk Millipore, USA).
The DNA double strand break marker γ-H2AX was stained for in tumour sections, indicating cisplatin-induced DNA damage.

[4] = test system: lesions in RPE/Choroid of the JR5558 mouse; test: JR5558 mouse lesion formation; type: in vivo; conditions: 50 mg/kg IP every 3 days from D14, eyes harvested D25, vs IgG
Description: 15C4 or IgG at 50 mg/kg was administered IP every 3 days from D14. Eyes were harvested on D25 and RPE/Choroid stained with Collagen IV. The number of lesions was counted and data quantified for the two groups.

[5] = molecular target: T1, human Lrg1 (Homo sapiens, UniProt P02750); test: Western blot specificity for human Lrg1; type: binding; conditions: conditioned medium from MDA-MB cells, human vitreous, whole human serum
T1 sequence (P02750 36-347): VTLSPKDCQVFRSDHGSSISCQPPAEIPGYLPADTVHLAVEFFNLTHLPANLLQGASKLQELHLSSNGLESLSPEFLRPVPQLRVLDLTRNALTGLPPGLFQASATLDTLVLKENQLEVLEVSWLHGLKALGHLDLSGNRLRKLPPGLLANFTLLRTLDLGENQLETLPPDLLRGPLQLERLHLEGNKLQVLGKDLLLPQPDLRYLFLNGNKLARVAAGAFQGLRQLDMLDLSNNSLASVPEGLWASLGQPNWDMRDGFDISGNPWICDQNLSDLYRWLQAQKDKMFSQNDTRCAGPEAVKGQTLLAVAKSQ
Description: To evaluate the specificity of the lead mAbs for human Lrg1 western blot analysis of each was performed against conditioned medium from the MDA-MB human tumour cell line, samples of human vitreous humour, and samples of whole human serum.

[6] = test system: Human umbilical vein endothelial cells (HUVEC); test: Matrigel tube formation assay; type: cell-based; conditions: 100 nM antibody, overnight
Description: The antibodies were tested for their ability to inhibit tube formation in a Matrigel assay. Human umbilical vein endothelial cells (HUVEC) were plated on Matrigel and cultured overnight in the presence of 100 nM mAbs. The blocking rabbit polyclonal Lrg1 antibody was also evaluated. […] Blocking with 4H2 never exceeded ˜50%.

B1: 15C4: mouse monoclonal antibody against human Lrg1, VH SEQ ID NO: 1, VL SEQ ID NO: 2 (antibody, V domains shown)
VH: QVQLQQSGDEVVRPGSSVKISCKASGYTFSGYWMNWVKQRPGQGLQWIGQIYPGDGDTNYNGKFKGKATLTADKSSSTAYMQLSTLTSEDSAIYFCARSITTVVLDYWGQGTTLTVSS
VL: DIVLTQSPVSLAVSLGQRATISCRASQSVSTSGYSFMHWYQQKPGQPPKFLIKYASNLESGVPARFSGSGSGTDFTLNIHPVEEEDTATYYCQHSWEMPLTFGAGTKLELK
modifications: 15C4 Variable Heavy Chain; 15C4 Variable light chain
blockade of angiogenesis (CNV) [1]: functional blockade of angiogenesis; also recorded: effective blockade; also recorded: less efficacious than 4H2 in the in vivo rodent models of angiogenesis
cross-reactivity with rodent Lrg1 [2]: None of antibodies 4H2, 3A11 or 15C4 exhibited strong cross-reactivity with rodent Lrg1
tumor growth ([3]; 15C4 50 mg/kg IP every 3 days in combination with cisplatin 2.5 mg/kg): significant reduction in tumor growth
apoptosis (TUNEL) ([3]; in combination with cisplatin): Significantly more apoptosis
nuclei with γ-H2AX foci ([3]; in combination with cisplatin): Significantly more nuclei with γ-H2AX foci
number of lesions [4]: reduces lesion formation; also recorded: significantly fewer lesions
recognition of Lrg1 band on western blot [5]: strongly recognise a single band of Lrg1 at 50 kD in the conditioned medium and vitreous
blocking of tube formation [6]: 60%
